Measurements as given in US20200231684A1 (published 2020).
Positions count from the first letter of the chain named.

T1: human IL-36R on cells (human, UniProt Q9HB29 20-575)
T1 construct: whole, on cells; also called full-length human IL-36R on HEK293 transfectants; HEK-IL-36R cells
T1 sequence (looked up): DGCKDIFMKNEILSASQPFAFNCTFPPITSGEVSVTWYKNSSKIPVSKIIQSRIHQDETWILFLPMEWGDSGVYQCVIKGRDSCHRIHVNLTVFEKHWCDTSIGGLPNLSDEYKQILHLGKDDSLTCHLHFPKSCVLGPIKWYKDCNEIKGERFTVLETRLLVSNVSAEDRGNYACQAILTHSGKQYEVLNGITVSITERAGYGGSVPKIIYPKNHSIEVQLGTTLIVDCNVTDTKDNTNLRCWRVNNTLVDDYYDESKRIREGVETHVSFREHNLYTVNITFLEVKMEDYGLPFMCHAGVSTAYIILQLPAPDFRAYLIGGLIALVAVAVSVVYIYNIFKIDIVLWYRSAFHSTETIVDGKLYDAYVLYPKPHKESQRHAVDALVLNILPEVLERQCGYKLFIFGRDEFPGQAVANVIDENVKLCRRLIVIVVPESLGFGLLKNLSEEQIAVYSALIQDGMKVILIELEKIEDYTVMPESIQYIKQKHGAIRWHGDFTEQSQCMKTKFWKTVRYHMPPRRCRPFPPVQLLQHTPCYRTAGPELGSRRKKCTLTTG

T2: recombinant human IL-36R (ECD) (human, UniProt Q9HB29 20-332)
T2 construct: range 20-332; also called IL-1RL2; IL-1Rrp2
T2 sequence (looked up): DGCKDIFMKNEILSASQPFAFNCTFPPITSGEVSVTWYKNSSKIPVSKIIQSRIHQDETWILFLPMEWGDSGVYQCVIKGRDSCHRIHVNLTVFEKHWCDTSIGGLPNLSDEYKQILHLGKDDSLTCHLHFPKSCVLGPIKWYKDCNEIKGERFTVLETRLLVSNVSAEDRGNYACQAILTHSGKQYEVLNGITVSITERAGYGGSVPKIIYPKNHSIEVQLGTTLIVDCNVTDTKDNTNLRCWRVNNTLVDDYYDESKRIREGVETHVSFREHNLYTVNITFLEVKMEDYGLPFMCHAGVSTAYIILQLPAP

T3: mouse IL-36R (mouse, UniProt Q9ERS7 22-338)
T3 sequence (looked up): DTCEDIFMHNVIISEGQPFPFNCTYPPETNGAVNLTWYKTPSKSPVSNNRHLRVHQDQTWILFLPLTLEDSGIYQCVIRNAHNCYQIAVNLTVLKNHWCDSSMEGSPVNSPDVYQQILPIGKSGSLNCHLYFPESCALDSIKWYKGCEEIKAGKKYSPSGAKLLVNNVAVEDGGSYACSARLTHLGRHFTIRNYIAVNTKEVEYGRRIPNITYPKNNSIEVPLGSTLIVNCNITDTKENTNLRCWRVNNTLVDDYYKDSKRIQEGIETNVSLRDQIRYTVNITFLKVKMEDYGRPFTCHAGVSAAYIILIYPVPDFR

T4: human IL-1R1 (human, UniProt P14778 18-336, limits assumed)
T4 construct: also called IL-1RI
T4 sequence (looked up): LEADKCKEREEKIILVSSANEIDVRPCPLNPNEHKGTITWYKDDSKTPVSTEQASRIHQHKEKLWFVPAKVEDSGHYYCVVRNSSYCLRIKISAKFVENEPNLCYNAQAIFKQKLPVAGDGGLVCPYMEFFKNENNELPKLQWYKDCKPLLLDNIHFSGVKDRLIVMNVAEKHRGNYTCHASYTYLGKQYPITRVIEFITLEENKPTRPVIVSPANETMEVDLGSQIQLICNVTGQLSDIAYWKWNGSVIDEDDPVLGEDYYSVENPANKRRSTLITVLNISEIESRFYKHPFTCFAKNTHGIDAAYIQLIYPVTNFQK

B1: antibody 33D10 (antibody, V domains shown)
VH: QVQLQQSGTELLKPGASVKLSCKASGNTVTSYWMHWVKQRPGQGLEWIGEILPSTGRTNYNENFKGKAMLTVDKSSSTAYMQLSSLASEDSAVYYCTIVYFGNPWFAYWGQGTLVTVSA
VL: QIVLTQSPAIMSASLGERVTMTCTASSSVSSSYLHWYQKKPGSSPKLWVYSTSNLASGVPVRFSGSGSGTSYSLTISSMEAEDAATYYCHQHHRSPVTFGSGTKLEMK
notes: Mouse monoclonal from hybridoma; also called 33D10B12; Mouse 33D10
B2: antibody 81B4 (antibody, V domains shown)
VH: QVQLQQPGADFVRPGASMRLSCKASGYSFTSSWIHWVKQRPGQGLEWIGEINPGNVRTNYNENFRNKATLTVDKSSTTAYMQLRSLTSADSAVYYCTVVFYGEPYFPYWGQGTLVTVSA
VL: B1 VL with L34F, K39Q, V49I, S51R, V61G, H92F, V97L, S101A, M107L
notes: Mouse monoclonal from hybridoma; also called 81B4E11; Mouse 81B4
B3: antibody 78C8 (antibody, V domains shown)
VH: QVQLKESGPVLVAPSQSLSITCTVSGFSLTKFGVHWIRQTPGKGLEWLGVIWAGGPTNYNSALMSRLTISKDISQSQVFLRIDSLQTDDTAMYYCAKQIYYSTLVDYWGQGTSVTVSS
VL: DVLLTQTPLSLPVSLGDQASISCRSSQNIVHSNGNTYLQWYLQKPGQSPKLLIYKVSNRFSGVPDRFSGSGSGTDFTLKISRVEAEDLGVYYCFQGSHVPFTFGAGTKLELK
notes: Mouse monoclonal from hybridoma; also called 78C8D1; Mouse 78C8

The binders below were run against T1, human IL-36R on cells (assay: flow cytometry, HEK293 cells transfected with full-length human IL-36R).
Description: HEK293 cells transfected with full-length human IL-36R or NCI/ADR-RES cells were passaged for 24 hours prior to staining. Cells were removed from flasks by rinsing with 10 ml of 5 mM EDTA in PBS, and then incubated at 37° C. for 10 min with an additional 10 ml of 5 mM EDTA and 2.5 ml of Accumax to declump/disperse cells. Antibodies were then diluted to specified concentrations in PBS+2% BSA, and cells incubated for 20 min at room temperature. Excess antibody was then washed by adding 200 μl of PBS and then centrifuged. Secondary reagent was then added at 50 μl per well and cells are incubated for 15 min at room temperature and then washed as above. Cells were resuspended in 200 μl PBS and analyzed by flow cytometry.

| Binder | EC50 [nM] |
| --- | --- |
| B1 | 0.475 |
| B2 | 0.302 |
| B3 | 0.529 |

These binders were tested against cynomolgus IL-36R on BaF/3 cells (cynomolgus, UniProt A0A2K5WSK9 20-558) (assay: cell-based or functional assay).
Sequence of cynomolgus IL-36R on BaF/3 cells (A0A2K5WSK9 entry or part of it): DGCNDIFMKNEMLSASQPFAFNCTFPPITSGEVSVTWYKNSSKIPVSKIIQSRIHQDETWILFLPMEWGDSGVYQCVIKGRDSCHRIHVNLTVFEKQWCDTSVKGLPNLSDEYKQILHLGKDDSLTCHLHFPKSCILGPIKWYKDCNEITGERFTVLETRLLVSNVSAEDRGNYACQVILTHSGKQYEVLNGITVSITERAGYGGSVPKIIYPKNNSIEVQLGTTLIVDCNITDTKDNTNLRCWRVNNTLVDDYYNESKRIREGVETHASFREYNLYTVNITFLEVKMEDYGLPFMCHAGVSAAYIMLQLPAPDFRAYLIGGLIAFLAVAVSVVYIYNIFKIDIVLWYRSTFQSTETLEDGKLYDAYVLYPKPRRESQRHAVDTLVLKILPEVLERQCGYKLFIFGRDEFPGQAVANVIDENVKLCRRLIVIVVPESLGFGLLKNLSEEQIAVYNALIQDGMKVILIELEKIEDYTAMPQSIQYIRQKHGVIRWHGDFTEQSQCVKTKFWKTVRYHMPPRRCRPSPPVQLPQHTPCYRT

| Binder | IC90, pNFκB, BaF/3 cynomolgus IL-36R cells, trun-IL-36a | IC90, pNFκB, BaF/3 cynomolgus IL-36R cells, trun-IL-36b [nM] | IC90, pNFκB, BaF/3 cynomolgus IL-36R cells, trun-IL-36g [nM] |
| --- | --- | --- | --- |
| B1 | > 4 µM | > 333 | > 333 |
| B2 | 2.4 nM | 3.5 | 5.1 |
| B3 | 1 nM | 2.1 | 1.5 |

Each binder was assayed against T1, human IL-36R on cells (assay: cell-based or functional assay).

| Binder | IC90, GM-CSF release, NCI/ADR-RES cells, trun-IL-36a [nM] | IC90, GM-CSF release, NCI/ADR-RES cells, trun-IL-36b [nM] | IC90, GM-CSF release, NCI/ADR-RES cells, trun-IL-36g [nM] | IC90, IL-6 release, NCI/ADR-RES cells, trun-IL-36a [nM] | IC90, IL-6 release, NCI/ADR-RES cells, trun-IL-36b [nM] | IC90, IL-6 release, NCI/ADR-RES cells, trun-IL-36g [nM] | IC90, IL-8 release, NCI/ADR-RES cells, trun-IL-36a [nM] | IC90, IL-8 release, NCI/ADR-RES cells, trun-IL-36b [nM] | IC90, IL-8 release, NCI/ADR-RES cells, trun-IL-36g [nM] | IC90, pNFκB, NCI/ADR-RES cells, trun-IL-36a [nM] |
| --- | --- | --- | --- | --- | --- | --- | --- | --- | --- | --- |
| B1 | 0.8 | 0.6 | 0.5 | 0.8 | 0.5 | 0.3 | 0.6 | 0.6 | 0.5 | 1.7 |
| B2 | 0.8 | 0.3 | 0.4 | 0.8 | 0.3 | 0.2 | 0.7 | 0.2 | 0.3 | 1.7 |
| B3 | 7.1 | 2 | 1.7 | 14 | 5.8 | 1.3 | 4.7 | 1.1 | 1.4 | 5.8 |

Same assay, conditions: not given

| Binder | IC90, pNFκB, NCI/ADR-RES cells, trun-IL-36b [nM] | IC90, pNFκB, NCI/ADR-RES cells, trun-IL-36g [nM] |
| --- | --- | --- |
| B1 | 1.3 | 1.1 |
| B2 | 1.4 | 1.2 |
| B3 | 6.8 | 4.6 |

Each binder was assayed against T2, recombinant human IL-36R (ECD) (assay: SPR (ProteOn), recombinant human IL-36R at 7 surface densities, global fit).
Description: A) Kinetics and binding affinities of anti-IL-36R antibodies binding to recombinant human IL-36R were measured using the Proteon (Bio-Rad, Hercules, Calif.) using material generated from hybridoma following single column purification. […] The binding affinities of the mouse antibodies to human IL-36R run at 7 different surface densities (globally fit) is shown in Table 1. Binding of the chimeric anti-IL36R IgGs is equivalent to the respective mouse leads.

| Binder | Kd [nM] |
| --- | --- |
| B1 | 0.009 |
| B2 | 0.024 |
| B3 | 0.063 |

What follows are binders tested against T2, recombinant human IL-36R (ECD) (assay: SPR (ProteOn), single IL-36R surface coat concentration).
Description: A) Kinetics and binding affinities of anti-IL-36R antibodies binding to recombinant human IL-36R were measured using the Proteon (Bio-Rad, Hercules, Calif.) using material generated from hybridoma following single column purification. […] Binding of the chimeric anti-IL36R IgGs is equivalent to the respective mouse leads.

| Binder | Kd [nM] |
| --- | --- |
| B1 | < 0.1 |
| B2 | < 0.1 |
| B3 | < 0.1 |

Target: T1, human IL-36R on cells
Assay: cell-based or functional assay
Remark: another data set of the same source

| Binder | IC90, IL-8 release, human primary keratinocytes (NHK), trun-IL-36a [nM] | IC90, IL-8 release, human primary keratinocytes (NHK), trun-IL-36b [nM] | IC90, IL-8 release, human primary keratinocytes (NHK), trun-IL-36g [nM] | IC90, pNFκB, human primary keratinocytes (NHK), trun-IL-36a [nM] | IC90, pNFκB, human primary keratinocytes (NHK), trun-IL-36b [nM] | IC90, pNFκB, human primary keratinocytes (NHK), trun-IL-36g [nM] |
| --- | --- | --- | --- | --- | --- | --- |
| B1 | 1.5 | 3 | 0.8 | 1.8 | 2.3 | 0.8 |
| B2 | 0.7 | 1.2 | 0.5 | 1.3 | 1.1 | 0.5 |
| B3 | 19.3 | 34 | 3.6 | 11.6 | 14.2 | 10.6 |

The binders below were run against T3, mouse IL-36R (assay: BLI (Fortebio Octet), antibody injected over antigen surface).
Description: (§1) B) Molecular selectivity over mouse IL-36R and human IL-1R1 The mouse and chimeric anti-IL-36R antibodies were also injected over either a mouse IL-36R or a human IL-1R1 surface at a concentration of 100 nM. The binding signal to mouse IL-36R and to human IL-1R1 for these antibodies measured using the Fortebio Octet (Fortebio, Menlo Park, Calif.) is zero, which indicates these antibodies selectively bind to human IL-36R.

| Binder | binding result |
| --- | --- |
| B1 | no binding (tested: 100 nM) |
| B2 | no binding (tested: 100 nM) |
| B3 | no binding (tested: 100 nM) |

Each binder was assayed against T4, human IL-1R1 in the same assay as above.
Description: as §1

| Binder | binding result |
| --- | --- |
| B1 | no binding (tested: 100 nM) |
| B2 | no binding (tested: 100 nM) |
| B3 | no binding (tested: 100 nM) |
